This is an account of results in article PMC6548132, “Engineered SUMO/protease system identifies Pdr6 as a bidirectional nuclear transport receptor” (The Journal of Cell Biology, 2019).

The target of the experiment is T1, recombinant Pdr6 (S. cerevisiae, UniProt P32767 1-1081).
T1 construct: Pdr6/Kap122, S. cerevisiae; also called Kap122; source: E. coli NEB express, purified (Ni2+ chelate beads)
T1 sequence (looked up): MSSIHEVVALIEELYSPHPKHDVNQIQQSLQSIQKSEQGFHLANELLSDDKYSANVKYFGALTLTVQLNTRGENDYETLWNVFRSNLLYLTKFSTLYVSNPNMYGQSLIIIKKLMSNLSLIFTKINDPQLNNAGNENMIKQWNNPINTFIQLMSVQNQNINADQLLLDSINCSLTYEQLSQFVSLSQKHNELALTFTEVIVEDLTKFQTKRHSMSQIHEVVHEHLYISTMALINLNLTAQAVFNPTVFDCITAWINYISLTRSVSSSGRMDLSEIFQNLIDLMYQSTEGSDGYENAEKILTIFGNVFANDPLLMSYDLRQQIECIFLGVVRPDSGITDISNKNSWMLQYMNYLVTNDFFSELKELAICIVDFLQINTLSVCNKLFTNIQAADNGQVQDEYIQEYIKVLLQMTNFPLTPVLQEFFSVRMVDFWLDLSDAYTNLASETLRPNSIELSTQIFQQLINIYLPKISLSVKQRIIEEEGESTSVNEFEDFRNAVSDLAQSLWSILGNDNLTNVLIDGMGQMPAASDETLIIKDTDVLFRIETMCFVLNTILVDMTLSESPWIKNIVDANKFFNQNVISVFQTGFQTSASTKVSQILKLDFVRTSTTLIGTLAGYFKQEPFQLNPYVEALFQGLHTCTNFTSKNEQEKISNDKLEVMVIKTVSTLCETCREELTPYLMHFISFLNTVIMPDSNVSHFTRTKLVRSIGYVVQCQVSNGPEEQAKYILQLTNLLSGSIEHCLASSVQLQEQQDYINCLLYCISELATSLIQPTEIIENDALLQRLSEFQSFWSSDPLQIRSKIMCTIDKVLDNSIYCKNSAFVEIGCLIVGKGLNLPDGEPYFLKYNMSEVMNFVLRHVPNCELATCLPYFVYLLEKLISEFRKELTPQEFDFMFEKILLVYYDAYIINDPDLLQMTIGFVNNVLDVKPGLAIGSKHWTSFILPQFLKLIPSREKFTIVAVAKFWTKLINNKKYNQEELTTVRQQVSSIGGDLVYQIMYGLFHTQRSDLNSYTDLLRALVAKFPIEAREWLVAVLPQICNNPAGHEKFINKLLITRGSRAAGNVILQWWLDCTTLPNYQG
Briefly: pull-down; 1.5 µM H14-ZZ-NEDD8-Ubc9 as bait, 3 µM recombinant Pdr6, with or without 3 µM RanGTP and 3 µM eIF5A; anti-ZZ/ED affibody matrix, elution by NEDP1 tag cleavage; 1 h at 4°, 45 mM Tris/HCl pH 7.5, 100 mM NaCl, 2 mM MgCl2, 5 mM DTT; SDS-PAGE/Coomassie. The conditions noted are these: both partners purified.

B1: H14-ZZ-NEDD8–tagged Ubc9 (enzyme, yeast (S. cerevisiae), UniProt P50623 1-157, looked up)
chain: MSSLCLQRLQEERKKWRKDHPFGFYAKPVKKADGSMDLQKWEAGIPGKEGTNWAGGVYPITVEYPNEYPSKPPKVKFPAGFYHPNVYPSGTICLSILNEDQDWRPAITLKQIVLGVQDLLDSPNPNSPAQEPAWRSFSRNKAEYDKKVLLQAKQYSK
notes: Ubc9, SUMO-conjugating E2 enzyme of yeast; Tag is cut by NEDP1 only at elution; also called immobilized Ubc9; source: E. coli NEB express, purified (Ni2+ chelate beads)
Consider B1, for which the binding result is recorded as “binds”.
